Laboratory results from paper PMC3713010, “Sox2 Transcriptionally Regulates Pqbp1, an Intellectual Disability-Microcephaly Causative Gene, in Neural Stem Progenitor Cells”.

Legend:
Test in all cases: EMSA; 10% glycerol, 20 mM HEPES pH 7.8, 45 mM KCl, 10 mM NaCl, 1 mM EDTA, 1 mM DTT, 0.2 ug/uL BSA, 0.1% NP-40, 50 ng poly-dIdC; 20 ng each GST protein; room temperature 30 min (heterodimers 4 C); 6% PAGE 0.25x TBE
Conditions in all cases: protein: recombinant; tags: GST (N-terminal, pGEX-6P-1); label: 32P-dCTP fill-in of the 5' (dG)5 overhangs of both strands (Methods; control probes are given with GGG)
[1] = target: Pax6 DNA-binding domain (BD-Pax6) (Mus musculus (B6), UniProt P63015 190-289)
Sequence of Pax6 DNA-binding domain (BD-Pax6) (P63015 190-289): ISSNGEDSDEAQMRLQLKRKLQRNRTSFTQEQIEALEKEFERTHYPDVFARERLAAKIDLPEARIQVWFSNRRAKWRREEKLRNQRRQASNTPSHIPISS
Method in brief: (§1)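 GST-tagged transcription factor DNA-binding domains were made in E. coli BL21 and purified on glutathione-sepharose. They were tested against candidate cis-element oligonucleotides, annealed and labelled with 32P-dCTP. Each protein (20 ng) was mixed with 40,000–50,000 cpm probe and 50 ng poly-dIdC in HEPES/KCl glycerol buffer with BSA and detergent for 30 min at room temperature. Samples were resolved on 6% polyacrylamide in 0.25×TBE at 4°C. DNA binding was scored as band radioactivity in the expected shift region, measured on a BAS4000 imager.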

[2] = target: T1, Brn2 DNA-binding domain (BD-Brn2) (Mus musculus (B6), UniProt P31360 336-435)
T1 sequence: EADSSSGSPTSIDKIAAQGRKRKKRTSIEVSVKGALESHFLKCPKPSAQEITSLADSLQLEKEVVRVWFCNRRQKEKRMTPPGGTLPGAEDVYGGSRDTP
Method in brief: as §1

[3] = target: T2, Oct6 DNA-binding domain (BD-Oct6) (Mus musculus (B6), UniProt P21952 317-416)
T2 sequence: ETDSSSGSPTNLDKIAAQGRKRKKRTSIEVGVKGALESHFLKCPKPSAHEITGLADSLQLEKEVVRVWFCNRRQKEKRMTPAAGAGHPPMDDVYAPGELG
Method in brief: as §1

| Binder | binding result [1] | binding result [2] | binding result [3] |
| --- | --- | --- | --- |
| 60 (dsDNA) DNA 1: GGGGGAATTTAATTTTGTCTCTACCTTTCACGCTTCTCCTTTGCATTTTCCCCCC DNA 2: GGGGGGAAAATGCAAAGGAGAAGCGTGAAAGGTAGAGACAAAATTAAATTCCCCC | binds | binds | binds |
| 49 (dsDNA) DNA 1: GGGGGCTCTCTGATTTGTGAGTATTGACAGAGAATCCCCC DNA 2: GGGGGATTCTCTGTCAATACTCACAAATCAGAGAGCCCCC | no binding | no binding | no binding |
| 63 (dsDNA) DNA 1: GGGGGAGAAATCCTCAATTTCCTTATCCACAAAATGGACATTTTCCTAGTACCTCCCCC DNA 2: GGGGGAGGTACTAGGAAAATGTCCATTTTGTGGATAAGGAAATTGAGGATTTCTCCCCC | binds | no binding | binds |
| 50 (dsDNA) DNA 1: GGGGGTTTGTAAGTTTGTACCATTTGGCCTCAGCCCCCCC DNA 2: GGGGGGGCTGAGGCCAAATGGTACAAACTTACAAACCCCC | no binding | no binding | no binding |
| 51 (dsDNA) DNA 1: GGGGGGTCCGGCTTTTGTTGATTTGCTTATCTATCCCCC DNA 2: GGGGGATAGATAAGCAAATCAACAAAAGCCGGACCCCCC | binds | no binding | no binding |
| 55 (dsDNA) DNA 1: GGGGGGTAGATTATTTGTCCACCATTCACAAGCACTGAGTTCAATAACCCCCC DNA 2: GGGGGGTTATTGAACTCAGTGCTTGTGAATGGTGGACAAATAATCTACCCCCC | no binding | no binding | binds |
| 57 (dsDNA) DNA 1: GGGGGCCTAAGATTCTTAATCTGACATTGTAGTCCCTACCCCC DNA 2: GGGGGTAGGGACTACAATGTCAGATTAAGAATCTTAGGCCCCC | binds | no binding | binds |
| 58 (dsDNA) DNA 1: GGGGGTGAGATGGAGGAAATAAGTCTTATTGTTGTTCTCCCCCCC DNA 2: GGGGGGGAGAACAACAATAAGACTTATTTCCTCCATCTCACCCCC | no binding | no binding | binds |
| 52 (dsDNA) DNA 1: GGGGGGGGGCAGCACAAATATTTCTGTGAATGTACCCCC DNA 2: GGGGGTACATTCACAGAAATATTTGTGCTGCCCCCCCCC | no binding | no binding | no binding |
| 62 (dsDNA) DNA 1: GGGGGTTTAAACAATTGTCCCATTCATTATATTGCAACACCCCC DNA 2: GGGGGTGTTGCAATATAATGAATGGGACAATTGTTTAAACCCCC | binds | binds | binds |
| 59 (dsDNA) DNA 1: GGGGGAGCTTTTAACAATTTAATTTTGTCTCTACCTCCCCC DNA 2: GGGGGAGGTAGAGACAAAATTAAATTGTTAAAAGCTCCCCC | binds | binds | binds |
| 47 (dsDNA) DNA 1: GGGGGCCACCATCTGTAATGTCCTTGGCACAATAAAACCAACCCCC DNA 2: GGGGGTTGGTTTTATTGTGCCAAGGACATTACAGATGGTGGCCCCC | no binding | no binding | binds |
| 56 (dsDNA) DNA 1: GGGGGACACTTATACAATAATAGTATTTATTAATAGTATCCCCC DNA 2: GGGGGATACTATTAATAAATACTATTATTGTATAAGTGTCCCCC | binds | binds | binds |
| 45 (dsDNA) DNA 1: GGGGGAAATGTGCTTTATTTCACAAAATCAACAACCCCC DNA 2: GGGGGTTGTTGATTTTGTGAAATAAAGCACATTTCCCCC | binds | no binding | binds |
| 46 (dsDNA) DNA 1: GGGGGTTATTTCACAAAATCAACAAATCAAAAAGCCCCC DNA 2: GGGGGCTTTTTGATTTGTTGATTTTGTGAAATAACCCCC | binds | no binding | binds |
| 61 (dsDNA) DNA 1: GGGGGTAAATTTTTCTAATCCTGACAAATCTCTTCACCCCC DNA 2: GGGGGTGAAGAGATTTGTCAGGATTAGAAAAATTTACCCCC | binds | no binding | binds |
| 53 (dsDNA) DNA 1: GGGGGTGCTTGTGACAAATCTGTCAATTTCTGGTGGGGGCCCCCC DNA 2: GGGGGGCCCCCACCAGAAATTGACAGATTTGTCACAAGCACCCCC | no binding | no binding | no binding |
| 48 (dsDNA) DNA 1: GGGGGATGAAATGGCTAAATCCTTTTTTTGTTGTTTGTTCCCCC DNA 2: GGGGGAACAAACAACAAAAAAAGGATTTAGCCATTTCATCCCCC | binds | no binding | no binding |
| 43 (dsDNA) DNA 1: GGGGGAGGAGTGCTTTGTAAAAATAACTTCTATGTCCCCC DNA 2: GGGGGACATAGAAGTTATTTTTACAAAGCACTCCTCCCCC | no binding | no binding | no binding |
| 42 (dsDNA) DNA 1: GGGGGGCTTCAGCATTGTGAAATTGAATCATTGCCCCCC DNA 2: GGGGGGCAATGATTCAATTTCACAATGCTGAAGCCCCCC | binds | no binding | no binding |
| 54 (dsDNA) DNA 1: GGGGGAGGTGTTAAGTGTGGAGTCGTGAGAACAACAATCCAGATAGCCCCC DNA 2: GGGGGCTATCTGGATTGTTGTTCTCACGACTCCACACTTAACACCTCCCCC | no binding | no binding | binds |
| 44 (dsDNA) DNA 1: GGGGGAAACCATGGGGGGTGGGCTGTAAACACAAAAAGGATTCCCCCC DNA 2: GGGGGGAATCCTTTTTGTGTTTACAGCCCACCCCCCATGGTTTCCCCC | no binding | no binding | no binding |
